In assay [1] the target is binding partner of C5A (XPA23). The assay is described as follows: Biacore. For orientation: Surface plasmon resonance follows binding to a sensor surface in real time, without labels.
The target of assay [2] is binding partner (antigen) of C5A (XPA23). The assay is described as follows: Biacore, K-off, fold vs original.

B1: C5A (XPA23) VH T58P (antibody, V domains shown)
VH: EVQLLESGGGLVQPGGSLRLSCAASGFTFSKYFMFWVRQAPGKGLEWVSVISPSGGMPRYADSVKGRFTISRDNSKNTLYLQMNSLRAEDTAVYYCARVGYGGNSDYWGQGTLVTVSS
VL: DIQMTQSPSSVSASVGDRLTIICRASQDINRWLAWYQQTPGNAPKLLIHSATSLQSGVPSRFSGSGSGTDFTLTINSLQPEDFATYYCQQADSFPLTFGGGTKVEIK
Turning to B1, the fold difference in affinity vs original in assay [1] and in assay [2] was 1.81 fold each time.

B2: C5A (XPA23) VH R59W (antibody, V domains shown)
VH: EVQLLESGGGLVQPGGSLRLSCAASGFTFSKYFMFWVRQAPGKGLEWVSVISPSGGMTWYADSVKGRFTISRDNSKNTLYLQMNSLRAEDTAVYYCARVGYGGNSDYWGQGTLVTVSS
VL: DIQMTQSPSSVSASVGDRLTIICRASQDINRWLAWYQQTPGNAPKLLIHSATSLQSGVPSRFSGSGSGTDFTLTINSLQPEDFATYYCQQADSFPLTFGGGTKVEIK
For the molecule B2, the fold affinity vs original in assay [1] is 0.09 fold. The fold difference in affinity vs original in assay [2] came to 0.09 fold.

B3: C5A (XPA23) VH V99A (antibody, V domains shown)
VH: EVQLLESGGGLVQPGGSLRLSCAASGFTFSKYFMFWVRQAPGKGLEWVSVISPSGGMTRYADSVKGRFTISRDNSKNTLYLQMNSLRAEDTAVYYCARAGYGGNSDYWGQGTLVTVSS
VL: DIQMTQSPSSVSASVGDRLTIICRASQDINRWLAWYQQTPGNAPKLLIHSATSLQSGVPSRFSGSGSGTDFTLTINSLQPEDFATYYCQQADSFPLTFGGGTKVEIK
For B3, the fold difference in affinity vs original in assay [1] and in assay [2] was 0.03 fold throughout.

B4: C5A (XPA23) VH Y101F (antibody, V domains shown)
VH: EVQLLESGGGLVQPGGSLRLSCAASGFTFSKYFMFWVRQAPGKGLEWVSVISPSGGMTRYADSVKGRFTISRDNSKNTLYLQMNSLRAEDTAVYYCARVGFGGNSDYWGQGTLVTVSS
VL: DIQMTQSPSSVSASVGDRLTIICRASQDINRWLAWYQQTPGNAPKLLIHSATSLQSGVPSRFSGSGSGTDFTLTINSLQPEDFATYYCQQADSFPLTFGGGTKVEIK
For the molecule B4, the fold affinity vs original in assay [1] amounted to 0.85 fold. The fold difference in affinity vs original in assay [2] is 0.85 fold.

B5: C5A (XPA23) VH R59P (antibody, V domains shown)
VH: EVQLLESGGGLVQPGGSLRLSCAASGFTFSKYFMFWVRQAPGKGLEWVSVISPSGGMTPYADSVKGRFTISRDNSKNTLYLQMNSLRAEDTAVYYCARVGYGGNSDYWGQGTLVTVSS
VL: DIQMTQSPSSVSASVGDRLTIICRASQDINRWLAWYQQTPGNAPKLLIHSATSLQSGVPSRFSGSGSGTDFTLTINSLQPEDFATYYCQQADSFPLTFGGGTKVEIK
As to B5, the fold difference in affinity vs original in assay [1] and in assay [2] was 0.07 fold in each case.

B6: C5A (XPA23) VH R59G (antibody, V domains shown)
VH: EVQLLESGGGLVQPGGSLRLSCAASGFTFSKYFMFWVRQAPGKGLEWVSVISPSGGMTGYADSVKGRFTISRDNSKNTLYLQMNSLRAEDTAVYYCARVGYGGNSDYWGQGTLVTVSS
VL: DIQMTQSPSSVSASVGDRLTIICRASQDINRWLAWYQQTPGNAPKLLIHSATSLQSGVPSRFSGSGSGTDFTLTINSLQPEDFATYYCQQADSFPLTFGGGTKVEIK
For B6, the fold difference in affinity vs original in assay [1] and in assay [2] was 1.04 fold each time.

B7: C5A (XPA23) VH Y101P (antibody, V domains shown)
VH: EVQLLESGGGLVQPGGSLRLSCAASGFTFSKYFMFWVRQAPGKGLEWVSVISPSGGMTRYADSVKGRFTISRDNSKNTLYLQMNSLRAEDTAVYYCARVGPGGNSDYWGQGTLVTVSS
VL: DIQMTQSPSSVSASVGDRLTIICRASQDINRWLAWYQQTPGNAPKLLIHSATSLQSGVPSRFSGSGSGTDFTLTINSLQPEDFATYYCQQADSFPLTFGGGTKVEIK
In the case of B7, the fold difference in affinity vs original in assay [1] and in assay [2] was 0.04 fold in each case.

B8: C5A (XPA23) VH Y101L (antibody, V domains shown)
VH: EVQLLESGGGLVQPGGSLRLSCAASGFTFSKYFMFWVRQAPGKGLEWVSVISPSGGMTRYADSVKGRFTISRDNSKNTLYLQMNSLRAEDTAVYYCARVGLGGNSDYWGQGTLVTVSS
VL: DIQMTQSPSSVSASVGDRLTIICRASQDINRWLAWYQQTPGNAPKLLIHSATSLQSGVPSRFSGSGSGTDFTLTINSLQPEDFATYYCQQADSFPLTFGGGTKVEIK
With B8, the fold difference in affinity vs original in assay [1] and in assay [2] was 1.91 fold throughout.

B9: C5A (XPA23) VH G103V (antibody, V domains shown)
VH: EVQLLESGGGLVQPGGSLRLSCAASGFTFSKYFMFWVRQAPGKGLEWVSVISPSGGMTRYADSVKGRFTISRDNSKNTLYLQMNSLRAEDTAVYYCARVGYGVNSDYWGQGTLVTVSS
VL: DIQMTQSPSSVSASVGDRLTIICRASQDINRWLAWYQQTPGNAPKLLIHSATSLQSGVPSRFSGSGSGTDFTLTINSLQPEDFATYYCQQADSFPLTFGGGTKVEIK
Take B9: the fold difference in affinity vs original in assay [1] and in assay [2] was 2.56 fold throughout.

B10: C5A (XPA23) VH V99F (antibody, V domains shown)
VH: EVQLLESGGGLVQPGGSLRLSCAASGFTFSKYFMFWVRQAPGKGLEWVSVISPSGGMTRYADSVKGRFTISRDNSKNTLYLQMNSLRAEDTAVYYCARFGYGGNSDYWGQGTLVTVSS
VL: DIQMTQSPSSVSASVGDRLTIICRASQDINRWLAWYQQTPGNAPKLLIHSATSLQSGVPSRFSGSGSGTDFTLTINSLQPEDFATYYCQQADSFPLTFGGGTKVEIK
Turning to B10, the fold affinity vs original in assay [1] is 0.03 fold. Further, the fold difference in affinity vs original in assay [2] amounted to 0.03 fold.

B11: C5A (XPA23) VH Y101W (antibody, V domains shown)
VH: EVQLLESGGGLVQPGGSLRLSCAASGFTFSKYFMFWVRQAPGKGLEWVSVISPSGGMTRYADSVKGRFTISRDNSKNTLYLQMNSLRAEDTAVYYCARVGWGGNSDYWGQGTLVTVSS
VL: DIQMTQSPSSVSASVGDRLTIICRASQDINRWLAWYQQTPGNAPKLLIHSATSLQSGVPSRFSGSGSGTDFTLTINSLQPEDFATYYCQQADSFPLTFGGGTKVEIK
Regarding B11, in assay [1], the fold affinity vs original was determined as 0.81 fold. For the same molecule, the fold difference in affinity vs original in assay [2] was 0.81 fold.

B12: C5A (XPA23) VH N104G (antibody, V domains shown)
VH: EVQLLESGGGLVQPGGSLRLSCAASGFTFSKYFMFWVRQAPGKGLEWVSVISPSGGMTRYADSVKGRFTISRDNSKNTLYLQMNSLRAEDTAVYYCARVGYGGGSDYWGQGTLVTVSS
VL: DIQMTQSPSSVSASVGDRLTIICRASQDINRWLAWYQQTPGNAPKLLIHSATSLQSGVPSRFSGSGSGTDFTLTINSLQPEDFATYYCQQADSFPLTFGGGTKVEIK
B12: the fold difference in affinity vs original in assay [1] and in assay [2] was 1.21 fold each time.

B13: C5A (XPA23) VH R59F (antibody, V domains shown)
VH: EVQLLESGGGLVQPGGSLRLSCAASGFTFSKYFMFWVRQAPGKGLEWVSVISPSGGMTFYADSVKGRFTISRDNSKNTLYLQMNSLRAEDTAVYYCARVGYGGNSDYWGQGTLVTVSS
VL: DIQMTQSPSSVSASVGDRLTIICRASQDINRWLAWYQQTPGNAPKLLIHSATSLQSGVPSRFSGSGSGTDFTLTINSLQPEDFATYYCQQADSFPLTFGGGTKVEIK
As to B13, in assay [1], the fold affinity vs original stood at 0.92 fold. Further, the fold difference in affinity vs original in assay [2] is 0.92 fold.

B14: C5A (XPA23) VH Y101V (antibody, V domains shown)
VH: EVQLLESGGGLVQPGGSLRLSCAASGFTFSKYFMFWVRQAPGKGLEWVSVISPSGGMTRYADSVKGRFTISRDNSKNTLYLQMNSLRAEDTAVYYCARVGVGGNSDYWGQGTLVTVSS
VL: DIQMTQSPSSVSASVGDRLTIICRASQDINRWLAWYQQTPGNAPKLLIHSATSLQSGVPSRFSGSGSGTDFTLTINSLQPEDFATYYCQQADSFPLTFGGGTKVEIK
Consider B14, for which the fold difference in affinity vs original in assay [1] and in assay [2] was 0.09 fold throughout.

B15: C5A (XPA23) VH G103A (antibody, V domains shown)
VH: EVQLLESGGGLVQPGGSLRLSCAASGFTFSKYFMFWVRQAPGKGLEWVSVISPSGGMTRYADSVKGRFTISRDNSKNTLYLQMNSLRAEDTAVYYCARVGYGANSDYWGQGTLVTVSS
VL: DIQMTQSPSSVSASVGDRLTIICRASQDINRWLAWYQQTPGNAPKLLIHSATSLQSGVPSRFSGSGSGTDFTLTINSLQPEDFATYYCQQADSFPLTFGGGTKVEIK
On to B15, for which the fold difference in affinity vs original in assay [1] and in assay [2] was 0.03 fold throughout.

B16: C5A (XPA23) VH Y101A (antibody, V domains shown)
VH: EVQLLESGGGLVQPGGSLRLSCAASGFTFSKYFMFWVRQAPGKGLEWVSVISPSGGMTRYADSVKGRFTISRDNSKNTLYLQMNSLRAEDTAVYYCARVGAGGNSDYWGQGTLVTVSS
VL: DIQMTQSPSSVSASVGDRLTIICRASQDINRWLAWYQQTPGNAPKLLIHSATSLQSGVPSRFSGSGSGTDFTLTINSLQPEDFATYYCQQADSFPLTFGGGTKVEIK
As to B16, the fold difference in affinity vs original in assay [1] and in assay [2] was 0.04 fold throughout.

B17: C5A (XPA23) VH R59L (antibody, V domains shown)
VH: EVQLLESGGGLVQPGGSLRLSCAASGFTFSKYFMFWVRQAPGKGLEWVSVISPSGGMTLYADSVKGRFTISRDNSKNTLYLQMNSLRAEDTAVYYCARVGYGGNSDYWGQGTLVTVSS
VL: DIQMTQSPSSVSASVGDRLTIICRASQDINRWLAWYQQTPGNAPKLLIHSATSLQSGVPSRFSGSGSGTDFTLTINSLQPEDFATYYCQQADSFPLTFGGGTKVEIK
With B17, the fold difference in affinity vs original in assay [1] and in assay [2] was 0.08 fold throughout.

B18: C5A (XPA23) VH G100W (antibody, V domains shown)
VH: EVQLLESGGGLVQPGGSLRLSCAASGFTFSKYFMFWVRQAPGKGLEWVSVISPSGGMTRYADSVKGRFTISRDNSKNTLYLQMNSLRAEDTAVYYCARVWYGGNSDYWGQGTLVTVSS
VL: DIQMTQSPSSVSASVGDRLTIICRASQDINRWLAWYQQTPGNAPKLLIHSATSLQSGVPSRFSGSGSGTDFTLTINSLQPEDFATYYCQQADSFPLTFGGGTKVEIK
Take B18: the fold affinity vs original in assay [1] stood at 0.05 fold. In addition, in assay [2], the fold difference in affinity vs original was 0.05 fold.

B19: C5A (XPA23) VH Y101I (antibody, V domains shown)
VH: EVQLLESGGGLVQPGGSLRLSCAASGFTFSKYFMFWVRQAPGKGLEWVSVISPSGGMTRYADSVKGRFTISRDNSKNTLYLQMNSLRAEDTAVYYCARVGIGGNSDYWGQGTLVTVSS
VL: DIQMTQSPSSVSASVGDRLTIICRASQDINRWLAWYQQTPGNAPKLLIHSATSLQSGVPSRFSGSGSGTDFTLTINSLQPEDFATYYCQQADSFPLTFGGGTKVEIK
Regarding B19, the fold difference in affinity vs original in assay [1] and in assay [2] was 0.83 fold throughout.

The values are drawn from patent US20110118447A1.
